From publication PMC8642242 come the findings set out here.

This experiment deals with SARS-CoV-2 stabilized S trimer (HexaPro) (SARS-CoV-2).

With WRAIR-2123 (human IgG1) (antibody), the IC50 of neutralization of SARS-CoV-2 (IL1/2020) pseudovirus (pSV assay) is 4 ng ml^−1.

Substance WRAIR-2165 (human IgG1) (antibody) yielded an IC50 of neutralization of SARS-CoV-2 (IL1/2020) pseudovirus (pSV assay) of 10 ng ml^−1.

As for WRAIR-2173 (human IgG1) (antibody), the IC50 of neutralization of SARS-CoV-2 (IL1/2020) pseudovirus (pSV assay) was 4 ng ml^−1.
